From article PMC6251626, “Structural basis of tubulin recruitment and assembly by microtubule polymerases with tumor overexpressed gene (TOG) domain arrays” (eLife, 2018)

B1: wt-Alp14-dimer (S. pombe Alp14 residues 1-690) (domain or fragment, UniProt O94534 1-690, looked up)
chain: MSQDQEEDYSKLPLESRIVHKVWKVRLSAYEECSKSFSLSADGSDNCFELWNNQSELWKSVLTDSNVAAQEAGTAAFVAYCRFSDPSHLLKAREISVLSISEKCLTSPRAGTRENALEALMLLVEADSAAPVIESIIPSLSARSPKVIASNVAAIASLVEQFGAKVIPSKMIIPHISNLFGHADKNVRKEASRLTVNIYRWTGDPLKDLLFKDLRPVQTKELESLFAELPTEPPKQTRFLKSQQPTSEPNVETQVEEQPALENEESEPEPSDDQFDLVEEVDVLPNVDPNLETLMASSKWKDRKEALDKLLPVLSQPKIKDNDFFNLVAILTKSVSKDANIMVVINAAHCIQAMAKGLRSNFSKYASTSINALLERSKEKKANVIESLSSAMDAVLATSSLDDLAELIASFAGNKNPQIKSSCFSLFSRSFSNMTSLPSKFTVDTCAKACVPGVSDTFEPVRSAAAEALGVLMKLVGERAINQYLSPLDDIRKSKIRSFYETATVKAKAPTKKSKVKPSKQEESKVVVPSNAKAVKKSVVPSSPVVPSPRKATNKSLSMDVSKGNAFENGPLLPRPTTRPVSRGLSRGTSSSLQQKVKASTPLNSGALNETVQNLKNMELDDPAPQPAKHSRVDRYEHPKVLEDNDSTISSLESLKRENEELREQLKVEHEENISMQKQLSELKGELNTL
notes: Alp14 (Alp14p), S. pombe, residues 1-690 (TOG1-TOG2, SK-rich region, coiled coil); also called dimeric Alp14; source: E. coli BL21, purified (Ni-IDA and/or ion exchange, SEC)
B2: INT1+2 (Alp14-dimer with interfaces 1 and 2 inactivated) (domain or fragment)
chain: MSQDQEEDYSKLPLESRIVHKVWKVRLSAYEECSKSFSDAAAGSDNCFELWNNQSELWKSVLTDSNVAAQEAGTAAFVAYCRFSDPSHLLKAREISVLSISEKCLTSPRAGTRENALEALMLLVEADSAAPVIESIIPSLSARSPKVIASNVAAIASLVEQFGAKVIPSKMIIPHISNLFGHADKNVRKEASRLTVNIYRWTGDPAKDALFKDLRPVQTKELESLFAELPTEPPKQTRFLKSQQPTSEPNVETQVEEQPALENEESEPEPSDDQRAAAEEVDVLPNVDPNLETLMASSKWKDRKEALDKLLPVLSQPKILDNDFFNLVAILTKSVSKDANIMVVINAAHCIQAMAKGLASNFSKYASTSINALLERSKEKKANVIESLSSAMDAVLATSSLDDLAELIASFAGNKNPQIKSSCFSLFSRSFSNMTSDPAKFTVDTCAKACVPGVSDTFEPVRSAAAEALGVLMKLVGAAAINQYLSPLDDIRKSKIRSFYETATVKAKAPTKKSKVKPSKQEESKVVVPSNAKAVKKSVVPSSPVVPSPRKATNKSLSMDVSKGNAFENGPLLPRPTTRPVSRGLSRGTSSSLQQKVKASTPLNSGALNETVQNLKNMELDDPAPQPAKHSRVDRYEHPKVLEDNDSTISSLESLKRENEELREQLKVEHEENISMQKQLSELKGELNTL

Columns and labels:
[1] = biological target: the molecule itself; assay: SEC-MALS; isolated proteins alone, 200 mM KCl
[2] = biological target: T1, αβ-tubulin heterodimer purified from porcine brains (porcine, UniProt P02550 1-451; P02554 1-445); assay: SEC-MALS; Alp14 constructs mixed with soluble αβ-tubulin (with or without DRP), Superdex 200 Increase 10/300, 80-100 mM KCl; conditions: both partners purified
T1 construct: α-tubulin of porcine brain; β-tubulin of porcine brain; Brain tubulin is a mixture of isotypes; Chains also in PDB 6MZF, 6MZE, 6MZG; also called soluble porcine αβ-tubulin; source: purified from porcine brains (two GTP-polymerization cycles at high ionic strength); copies: 1 + 1

[3] = biological target: T1, αβ-tubulin heterodimer purified from …; assay: SEC; quantitative SEC (Superdex 200 10/300) with SDS-PAGE densitometry of fractions; 2 αβ-tubulin per Alp14 subunit, with or without DRP; 200 mM KCl, 50 mM HEPES pH 7.0, 1 mM MgCl2, 1 mM β-mercaptoethanol; conditions: both partners purified
[4] = biological target: T1, αβ-tubulin heterodimer purified from …; assay: SEC; quantitative SEC (Superdex 200 10/300) with SDS-PAGE densitometry of fractions; 2 αβ-tubulin per Alp14 subunit, with or without DRP; 100 mM KCl, 50 mM HEPES pH 7.0, 1 mM MgCl2, 1 mM β-mercaptoethanol; conditions: both partners purified

Binder	stoichiometry N [1]	stoichiometry N [2]	TOG1-TOG2:αβ-tubulin molar ratio [3]	TOG1-TOG2:αβ-tubulin molar ratio [4]
B1	2	–	–	–
B2	–	~4	1.46	1.86
